According to patent US20070065878A1:

Legend:
[1] = target: T1, D5 (TEVopt library clone)
T1 chain: SLYWQG

[2] = target: T2, E01 (TEV substrate clone, 5X library)
T2 chain: EEYLW

[3] = target: T3, F04 (TEV substrate clone, 5X library)
T3 chain: DRELY

[4] = target: T4, G05 (TEV substrate clone, 5X library)
T4 chain: LRELW

[5] = target: T5, H04 (TEV substrate clone, 5X library)
T5 chain: MEDLM

[6] = target: T6, C5 (TEVopt library clone)
T6 chain: ELYAQG

[7] = target: T7, D04 (TEV substrate clone, 5X library)
T7 chain: GEALF

[8] = target: T8, D05 (TEV substrate clone, 5X library)
T8 chain: GEAGV

[9] = target: T9, F11 (TEV substrate clone, 5X library)
T9 chain: GEPLW

[10] = target: T10, E09 (TEV substrate clone, 5X library)
T10 chain: SEPLR

[11] = target: T11, E4 (TEVopt library clone)
T11 chain: SLYVQG

[12] = target: T12, B02 (TEV substrate clone, 5X library)
T12 chain: EEELY

[13] = target: T13, C09 (TEV substrate clone, 5X library)
T13 chain: RELVY

[14] = target: T14, E05 (TEV substrate clone, 5X library)
T14 chain: RDDGY

[15] = target: T15, B6 (TEVopt library clone)
T15 chain: EVYVQG

[16] = target: T16, C6 (TEVopt library clone)
T16 chain: QLYFQS

[17] = target: T17, F05 (TEV substrate clone, 5X library)
T17 chain: DRELY

[18] = target: T18, C04 (TEV substrate clone, 5X library)
T18 chain: RRMAE

[19] = target: T19, D1 (TEVopt library clone)
T19 chain: WLYLQG

[20] = target: T20, H06 (TEV substrate clone, 5X library)
T20 chain: EEELW

[21] = target: T21, H08 (TEV substrate clone, 5X library)
T21 chain: WEPLW

[22] = target: T22, F02 (TEV substrate clone, 5X library)
T22 chain: EEYLW

[23] = target: T23, G08 (TEV substrate clone, 5X library)
T23 chain: MEWLW

[24] = target: T24, D01 (TEV substrate clone, 5X library; as in Table 6)
T24 chain: GEVLW

[25] = target: T25, A05 (TEV substrate clone, 5X library)
T25 chain: FEDLL

[26] = target: T26, H07 (TEV substrate clone, 5X library)
T26 chain: EEAVL

[27] = target: T27, G06 (TEV substrate clone, 5X library)
T27 chain: SEDLW

[28] = target: T28, H03 (TEV substrate clone, 5X library)
T28 chain: ARQIR

[29] = target: T29, C4 (TEVopt library clone)
T29 chain: ELYWQG

[30] = target: T30, C11 (TEV substrate clone, 5X library)
T30 chain: DGALY

[31] = target: T31, D09 (TEV substrate clone, 5X library)
T31 chain: MEMLR

[32] = target: T32, A2 (TEVopt library clone)
T32 chain: DVYVQG

[33] = target: T33, H11 (TEV substrate clone, 5X library)
T33 chain: AEWGR

[34] = target: T34, C07 (TEV substrate clone, 5X library)
T34 chain: VEPIY

[35] = target: T35, B09 (TEV substrate clone, 5X library)
T35 chain: LEQLI

[36] = target: T36, A4 (TEVopt library clone)
T36 chain: VLYLQS

[37] = target: T37, C05 (TEV substrate clone, 5X library)
T37 chain: REVGY

[38] = target: T38, A1 (TEVopt library clone)
T38 chain: FLYLQG

[39] = target: T39, E11 (TEV substrate clone, 5X library)
T39 chain: WESLY

[40] = target: T40, F03 (TEV substrate clone, 5X library)
T40 chain: LESLV

[41] = target: T41, D02 (TEV substrate clone, 5X library)
T41 chain: DSELY

[42] = target: T42, F09 (TEV substrate clone, 5X library)
T42 chain: GEDLL

[43] = target: T43, A06 (TEV substrate clone, 5X library)
T43 chain: FEDGL

[44] = target: T44, D11 (TEV substrate clone, 5X library)
T44 chain: GEHVY

[45] = target: T45, E6 (TEVopt library clone)
T45 chain: VLYTQG

[46] = target: T46, E07 (TEV substrate clone, 5X library)
T46 chain: ETILY

[47] = target: E03 (TEV substrate clone, 5X library)
[48] = target: T47, D08 (TEV substrate clone, 5X library)
T47 chain: LEWLK

[49] = target: T48, F07 (TEV substrate clone, 5X library)
T48 chain: EENLG

[50] = target: T49, D10 (TEV substrate clone, 5X library)
T49 chain: LYFQG

[51] = target: T50, B07 (TEV substrate clone, 5X library)
T50 chain: MEEVY

[52] = target: T51, A3 (TEVopt library clone)
T51 chain: ALYIQG

[53] = target: T52, H09 (TEV substrate clone, 5X library)
T52 chain: GEALF

[54] = target: T53, D07 (TEV substrate clone, 5X library)
T53 chain: REVLY

[55] = target: T54, D01 (TEV substrate clone, 5X library; as in Table 5A)
T54 chain: DVQLY

[56] = target: T55, G03 (TEV substrate clone, 5X library)
T55 chain: GDMGY

[57] = target: T56, B11 (TEV substrate clone, 5X library)
T56 chain: GETVY

[58] = target: D03 (TEV substrate clone, 5X library)
[59] = target: T57, G02 (TEV substrate clone, 5X library)
T57 chain: GEAGF

[60] = target: T58, C3 (TEVopt library clone)
T58 chain: DLYWQG

[61] = target: T59, D4 (TEVopt library clone)
T59 chain: LLYIQG

[62] = target: T60, C10 (TEV substrate clone, 5X library)
T60 chain: PEVIY

[63] = target: Control (TEV substrate ENLYFQS)
Throughout, for % Conversion: test concentration or dose not given here.
Throughout, for Conversion (group heading of the table): test concentration or dose not given here.
Throughout, for Fl (fluorescence without TEV): unit not given here.
Throughout, for Fl after TEV: unit not given here.

B1: tobacco etch virus protease (protein)
chain: GESLFKGPRDYNPISSTICHLTNESDGHTTSLYGIGFGPFIITNKHLFRRNNGTLLVQSLHGVFKVKNTTTLQQHLIDGRDMIIIRMPKDFPPFPQKLKFREPQREERICLVTTNFQTKSMSSMVSDTSCTFPSSDGIFWKHWIQTKDGQCGSPLVSTRDGFIVGIHSASNFTNTNNYFTSVPKNFMELLTNQEAQQWVSGWRLNADSVLWGGHKVFMSKPEEPFQPVKEATQLMNELVYSQ
With B1 the % Conversion (fraction (head says % Conversion)) [1] was 0.717, the “Conversion (group heading of the table)” value [2] was 50%-60% Conversion and the % Conversion (fraction (head says % Conversion)) [3] was 0.79. The “Conversion (group heading of the table)” value [3] was 60%-90% Conversion, the Fl (fluorescence without TEV) [3] was 5910 and the Fl after TEV [3] was 1420. For the same protein, the “Conversion (group heading of the table)” value [4] was 60%-90% Conversion, the “Conversion (group heading of the table)” value [5] was 50%-60% Conversion and the % Conversion (fraction (head says % Conversion)) [6] was 0.588. For the same protein, the “Conversion (group heading of the table)” value [7] was 50%-60% Conversion, the “Conversion (group heading of the table)” value [8] was 30%-50% conversion and the “Conversion (group heading of the table)” value [9] was 50%-60% Conversion. The “Conversion (group heading of the table)” value [10] was 60%-90% Conversion, the % Conversion (fraction (head says % Conversion)) [11] was 0.863 and the % Conversion (fraction (head says % Conversion)) [12] was 0.72. For the same protein, the “Conversion (group heading of the table)” value [12] was 60%-90% Conversion, the Fl (fluorescence without TEV) [12] was 3270 and the Fl after TEV [12] was 1080. The “Conversion (group heading of the table)” value [13] was 30%-50% conversion, the “Conversion (group heading of the table)” value [14] was 30%-50% conversion and the % Conversion (fraction (head says % Conversion)) [15] was 0.61. The % Conversion (fraction (head says % Conversion)) [16] was 0.618, the “Conversion (group heading of the table)” value [17] was 50%-60% Conversion and the “Conversion (group heading of the table)” value [18] was 60%-90% Conversion. The % Conversion (fraction (head says % Conversion)) [19] was 0.68, the “Conversion (group heading of the table)” value [20] was 60%-90% Conversion and the % Conversion (fraction (head says % Conversion)) [21] was 0.73. The “Conversion (group heading of the table)” value [21] was 60%-90% Conversion, the Fl (fluorescence without TEV) [21] was 3970 and the Fl after TEV [21] was 1250. For the same protein, the “Conversion (group heading of the table)” value [22] was 30%-50% conversion, the “Conversion (group heading of the table)” value [23] was 60%-90% Conversion and the % Conversion (fraction (head says % Conversion)) [24] was 0.87. For the same protein, the Fl (fluorescence without TEV) [24] was 3840, the Fl after TEV [24] was 725 and the “Conversion (group heading of the table)” value [25] was 50%-60% Conversion. The % Conversion (fraction (head says % Conversion)) [26] was 0.71, the “Conversion (group heading of the table)” value [26] was 60%-90% Conversion and the Fl (fluorescence without TEV) [26] was 2990. For the same protein, the Fl after TEV [26] was 1040, the “Conversion (group heading of the table)” value [27] was 60%-90% Conversion and the “Conversion (group heading of the table)” value [28] was 30%-50% conversion. For the same protein, the % Conversion (fraction (head says % Conversion)) [29] was 0.689, the “Conversion (group heading of the table)” value [30] was 50%-60% Conversion and the “Conversion (group heading of the table)” value [31] was 60%-90% Conversion. For the same protein, the % Conversion (fraction (head says % Conversion)) [32] was 0.526, the “Conversion (group heading of the table)” value [33] was 30%-50% conversion and the “Conversion (group heading of the table)” value [34] was 30%-50% conversion. The % Conversion (fraction (head says % Conversion)) [35] was 0.76, the “Conversion (group heading of the table)” value [35] was 60%-90% Conversion and the Fl (fluorescence without TEV) [35] was 3250. The Fl after TEV [35] was 980, the % Conversion (fraction (head says % Conversion)) [36] was 0.854 and the “Conversion (group heading of the table)” value [37] was 30%-50% conversion. The % Conversion (fraction (head says % Conversion)) [38] was 0.918, the % Conversion (fraction (head says % Conversion)) [39] was 0.77 and the “Conversion (group heading of the table)” value [39] was 60%-90% Conversion. For the same protein, the Fl (fluorescence without TEV) [39] was 5050, the Fl after TEV [39] was 1360 and the “Conversion (group heading of the table)” value [40] was 60%-90% Conversion. For the same protein, the “Conversion (group heading of the table)” value [41] was 60%-90% Conversion, the % Conversion (fraction (head says % Conversion)) [42] was 0.71 and the “Conversion (group heading of the table)” value [42] was 60%-90% Conversion. The Fl (fluorescence without TEV) [42] was 4810, the Fl after TEV [42] was 1550 and the “Conversion (group heading of the table)” value [43] was 30%-50% conversion. For the same protein, the “Conversion (group heading of the table)” value [44] was 60%-90% Conversion, the % Conversion (fraction (head says % Conversion)) [45] was 0.549 and the “Conversion (group heading of the table)” value [46] was 50%-60% Conversion. The “Conversion (group heading of the table)” value [47] was 60%-90% Conversion, the “Conversion (group heading of the table)” value [48] was 60%-90% Conversion and the “Conversion (group heading of the table)” value [49] was 50%-60% Conversion. The “Conversion (group heading of the table)” value [50] was 60%-90% Conversion, the “Conversion (group heading of the table)” value [51] was 50%-60% Conversion and the % Conversion (fraction (head says % Conversion)) [52] was 0.922. For the same protein, the “Conversion (group heading of the table)” value [53] was 60%-90% Conversion, the “Conversion (group heading of the table)” value [54] was 60%-90% Conversion and the “Conversion (group heading of the table)” value [55] was 60%-90% Conversion. For the same protein, the “Conversion (group heading of the table)” value [56] was 30%-50% conversion, the “Conversion (group heading of the table)” value [57] was 30%-50% conversion and the “Conversion (group heading of the table)” value [58] was 60%-90% Conversion. For the same protein, the “Conversion (group heading of the table)” value [59] was 30%-50% conversion, the % Conversion (fraction (head says % Conversion)) [60] was 0.734 and the % Conversion (fraction (head says % Conversion)) [61] was 0.517. The % Conversion (fraction (head says % Conversion)) [62] was 0.81, the “Conversion (group heading of the table)” value [62] was 60%-90% Conversion and the Fl (fluorescence without TEV) [62] was 6110. It also gave a Fl after TEV [62] of 1380 and a % Conversion (fraction (head says % Conversion)) [63] of 0.664.
